Assay results published in patent publication US20030049732.

Target: T1, Nod1
T1 chain: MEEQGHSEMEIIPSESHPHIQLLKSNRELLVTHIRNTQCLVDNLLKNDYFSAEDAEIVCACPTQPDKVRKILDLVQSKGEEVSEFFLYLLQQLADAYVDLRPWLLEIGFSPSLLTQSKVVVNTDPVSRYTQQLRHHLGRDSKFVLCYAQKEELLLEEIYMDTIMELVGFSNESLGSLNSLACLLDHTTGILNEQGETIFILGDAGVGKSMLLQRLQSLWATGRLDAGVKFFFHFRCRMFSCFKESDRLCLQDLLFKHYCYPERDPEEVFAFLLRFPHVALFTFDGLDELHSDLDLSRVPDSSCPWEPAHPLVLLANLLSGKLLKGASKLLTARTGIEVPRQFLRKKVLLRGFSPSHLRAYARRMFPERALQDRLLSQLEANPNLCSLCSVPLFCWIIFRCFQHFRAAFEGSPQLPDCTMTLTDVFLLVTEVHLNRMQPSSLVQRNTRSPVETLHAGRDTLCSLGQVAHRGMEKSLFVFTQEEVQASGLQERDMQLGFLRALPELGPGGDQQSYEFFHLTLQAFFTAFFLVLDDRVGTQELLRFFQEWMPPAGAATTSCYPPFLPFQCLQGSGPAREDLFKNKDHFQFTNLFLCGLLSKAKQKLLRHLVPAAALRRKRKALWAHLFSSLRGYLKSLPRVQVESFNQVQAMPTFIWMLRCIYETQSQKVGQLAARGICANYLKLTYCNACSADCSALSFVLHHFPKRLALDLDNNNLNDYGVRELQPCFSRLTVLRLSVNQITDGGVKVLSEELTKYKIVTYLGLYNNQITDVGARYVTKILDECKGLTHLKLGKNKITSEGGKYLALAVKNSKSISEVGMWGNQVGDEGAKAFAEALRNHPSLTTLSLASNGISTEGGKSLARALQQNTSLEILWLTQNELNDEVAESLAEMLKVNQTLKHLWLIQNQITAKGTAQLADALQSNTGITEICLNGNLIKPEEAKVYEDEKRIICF

B1: Caspase-9 (protein)
chain: MDEADRRLLRRCRLRLVEELQVDQLWDALLSRELFRPHMIEDIQRAGSGSRRDQARQLIIDLETRGSQALPLFISCLEDTGQDMLASFLRTNRQAAKLSKPTLENLTPVVLRPEIRKPEVLRPETPRPVDIGSGGFGDVGALESLRGNADLAYILSMEPCGHCLIINNVNFCRESGLRTRTGSNIDCEKLRRRFSSLHFMVEVKGDLTAKKMVLALLELAQQDHGALDCCVVVILSHGCQASHLQFPGAVYGTDGCPVSVEKIVNIFNGTSCPSLGGKPKLFFIQACGGEQKDHGFEVASTSPEDESPGSNPEPDATPFQEGLRTFDQLDAISSLPTPSDIFVSYSTFPGFVSWRDPKSGSWYVETLDDIFEQWAHSEDLQSLLLRVANAVSVKGIYKQMPGCFNFLRKKLFFKTS
proteolytic processing of procaspase-9 (SDS-PAGE, anti-Flag immunoblot of 293T lysates): Expression of Nod1 includes the proteolytic activation of procaspase-9, but not that of procaspase-8

B2: Caspase-8 (protein)
chain: MDFSRNLYDIGEQLDSEDLASLKFLSLDYIPQRKQEPIKDALMLFQRLQEKRMLEESNLSFLKELLFRINRLDLLITYLNTRKEEMERELQTPGRAQISAYRVMLYQISEEVSRSELRSFKFLLQEEISKCKLDDDMNLLDIFIEMEKRVILGEGKLDILKRVCAQINKSLLKIINDYEEFSKERSSSLEGSPDEFSNGEELCGVMTISDSPREQDSESQTLDKVYQMKSKPRGYCLIINNHNFAKAREKVPKLHSIRDRNGTHLDAGALTTTFEELHFEIKPHDDCTVEQIYEILKIYQLMDHSNMDCFICCILSHGDKGIIYGTDGQEAPIYELTSQFTGLKCPSLAGKPKVFFIQACQGDNYQKGIPVETDSEEQPYLEMDLSSPQTRYIPDEADFLLGMATVNNCVSYRNPAEGTWYIQSLCQSLRERCPRGDDILTILTEVNYEVSNKDDKKNMGKQMPQPTFTLRKKLVFPSD
proteolytic processing of procaspase-8 (SDS-PAGE, anti-HA immunoblot of 293T lysates): Expression of Nod1 includes the proteolytic activation of procaspase-9, but not that of procaspase-8
